Laboratory results from patent US20180230212A1.

Experiments:
[1] = molecular target: human CD98hc with incomplete glycosylation (cells treated with tunicamycin, thapsigargin or bortezomib) (human) (UniProt P08195); assay: FACS on tunicamycin-treated THP-1 cells, MEM-108 at 2.5 µg/ml, PE anti-mouse IgG
[2] = molecular target: human CD98hc as expressed on normal blood cells, HUVEC cells and untreated U937 / THP-1 cells (human CD98hc having an N-glycan) (human) (UniProt P08195); assay: FACS on untreated THP-1 cells, MEM-108 at 2.5 µg/ml, PE anti-mouse IgG
[3] = molecular target: human CD98hc as expressed on normal blood cells, HUVEC cells and untreated U937 / THP-1 cells (human CD98hc having an N-glycan) (human) (UniProt P08195); assay: FACS on untreated U937 cells, MEM-108 at 2.5 µg/ml, PE anti-mouse IgG
[4] = molecular target: human CD98hc with incomplete glycosylation (cells treated with tunicamycin, thapsigargin or bortezomib) (human) (UniProt P08195); assay: FACS on tunicamycin-treated U937 cells, MEM-108 at 2.5 µg/ml, PE anti-mouse IgG

- MFI (corrected value obtained by dividing with an isotype control) (MFI / MFI of isotype control) [1]: 29.1
- MFI (corrected value obtained by dividing with an isotype control) (MFI / MFI of isotype control) [2]: 29.4
- MFI (corrected value obtained by dividing with an isotype control) (MFI / MFI of isotype control) [3]: 11.8
- MFI (corrected value obtained by dividing with an isotype control) (MFI / MFI of isotype control) [4]: 8.3
Substance: MEM-108 antibody (anti-human CD98 antibody, Biolegend)
